Square brackets hold non-standard residues; d marks the D form. Ends that are not written are not given here. fluorescein = fluorescein label (fluorescent) on the peptide N-terminus; pS = N[C@@H](COP(=O)(O)O)C(=O)O
Legend:
[1] = biological target: tetraheptad CTD-Ser5-PO4 peptide (phosphorylated at Ser5 (CTD-Ser5-PO4)); assay: cell-based or functional assay
[2] = biological target: T1, fluorescein labeled phosphorylated CTD peptide (Fluor-S2P3T4S5PP6S7Y1S2PP3T4S5); assay: fluorescence polarisation
T1 peptide: fluorescein-SPT[pS]PSY[pS]PTS

B1: Mce R330A (domain or fragment)
chain: not shown
In the case of B1, the “fold stimulation of guanylylation by CTD Ser5-PO4” value (“fold stimulation … by CTD Ser5-PO4” for short) [1] is reported as 2.1 fold.

B2: Mce-K294A (domain or fragment)
chain: not shown
With B2 the “fold reduction of affinity against wild-type Mce” value [2] was roughly 1.8 fold.

B3: Mce-C375R (domain or fragment)
chain: not shown
With B3 the “fold stimulation of guanylylation in the presence of CTD Ser5-PO4” value [1] was 5.9 fold.

B4: Mce R330A/K331A (domain or fragment)
chain: not shown
B4 was tested, and the “fold stimulation … by CTD Ser5-PO4” value [1] was 1.9 fold.

B5: Mce R330A/K331A/R386A (domain or fragment)
chain: not shown
In the case of B5, the “fold stimulation … by CTD Ser5-PO4” value [1] is reported as 1.6 fold.

B6: Mce C383Y (domain or fragment)
chain: not shown
For B6, the “fold decrease in affinity against wild-type Mce” value [2] was 1.9 fold.

From paper PMC3142331 (Molecular cell, 2011)
